The values below come from PMC5419741, “La-related protein 1 (LARP1) binds the mRNA cap, blocking eIF4F assembly on TOP mRNAs”.

Data set [1] addresses T1, LARP1 DM15 (Homo sapiens, UniProt Q6PKG0-3 796-946). Put plainly: EMSA; Competition assays: 20 mM Tris pH 8, 150 mM NaCl, 10% glycerol, 1 mM DTT, 0.5 ug BSA, 0.5 ug tRNA, 30 min on ice, native gel; EMSA as in Lahr et al. 2015 with RNA <=200 pM. Conditions: protein: recombinant. Background: Mobility shift assays separate free from complexed probe on a gel.
A further data set has as its target eIF4E (Homo sapiens, UniProt P06730 1-217). The data set can be described thus: competition; outcompetes DM15 as pre-bound or competitor protein; Competition assays: 20 mM Tris pH 8, 150 mM NaCl, 10% glycerol, 1 mM DTT, 0.5 ug BSA, 0.5 ug tRNA, 30 min on ice, native gel; EMSA as in Lahr et al. 2015 with RNA <=200 pM. Conditions: protein: recombinant; tags: His6-MBP removed by TEV; label: 32P in cap.

In data set [2] the target is T1, LARP1 DM15. Put plainly: crystal structure; Competition assays: 20 mM Tris pH 8, 150 mM NaCl, 10% glycerol, 1 mM DTT, 0.5 ug BSA, 0.5 ug tRNA, 30 min on ice, native gel; EMSA as in Lahr et al. 2015 with RNA <=200 pM. Conditions: protein: recombinant.

Sequence of eIF4E (P06730 whole entry): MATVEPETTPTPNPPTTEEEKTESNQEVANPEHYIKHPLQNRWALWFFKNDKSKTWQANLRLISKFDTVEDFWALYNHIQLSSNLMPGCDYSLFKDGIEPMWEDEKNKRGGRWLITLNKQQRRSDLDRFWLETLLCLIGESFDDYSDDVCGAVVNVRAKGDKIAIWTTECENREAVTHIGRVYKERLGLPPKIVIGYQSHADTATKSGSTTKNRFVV

B1: m7Gppp-RPL32 42mer (ssRNA)
RNA: CUCUCUUCCUCGGCGCUGCCUACGGAGGUGGCAGCCAUCUCC
modifications: 5' m7Gppp cap
For B1, the binding result with LARP1 DM15 [1] (label: 32P in cap) is recorded as “binds”.

B2: G-RPS6 (uncapped non-TOP) (ssRNA)
RNA: GCCUCUUUUCCGUGGCGCCUCGGAGGCGUUCAGCUGCUUCAAG
For the molecule B2, in the data set with LARP1 DM15 [1] (label: 5' 32P), the Kd was determined as 7500 nM.

B3: m7Gppp-G-RPS6 (capped non-TOP) (ssRNA)
RNA: B2 RNA
modifications: 5' m7Gppp cap
As to B3, the binding result with eIF4E is recorded as “binds”. For the same molecule, the Kd with LARP1 DM15 [1] (label: 32P in cap) turned out to be 2000 nM.

B4: m7Gppp-RPS6 42mer (capped TOP) (ssRNA)
RNA: CCUCUUUUCCGUGGCGCCUCGGAGGCGUUCAGCUGCUUCAAG
modifications: 5' m7Gppp cap
B4: in the data set with LARP1 DM15 [1] (label: 32P in cap), the Kd was determined as 21 nM.

B5: RPS6 8mer (ssRNA)
RNA: CUUUUCCG
Consider B5, for which the binding result in the data set with LARP1 DM15 [2] is recorded as “binds”.

One may read the Kd as the concentration at which binding is half-saturated.
